Here are results for one molecule from patent US8465945B2, “Method for production and use of mite group 1 proteins” (Merck Patent GmbH, priority 1999, dated 2013).

Data set [1] relates to anti-Der f 1 MAb 6A8 (capture) and anti-Der f 1 MAb 4C1 (detection). Put plainly: Monoclonal Capture ELISA. The format is binding. The method, then:
Assays were carried out as follows. A microtiter plate as described in Example 5 was coated overnight at 4° C. with 100 ng/well of anti-Der f 1 protein monoclonal antibody 6A8, denoted herein as anti-Der f 1 MAb 6A8, provided by Dr. Martin Chapman. The plate was washed in the manner described above. The following proteins were then added to wells, having been diluted in Assay Buffer in a 2-fold dilution series, from 0.75 to 50 ng/well: Heska native Derf1, P. pastoris-expressed PDerf1303b, and E. coli-expressed PDerf1303c. After incubation for 1 hour at room temperature, plates were washed as described in Example 5. Then 100 μl per well of a 1:1000 dilution in Assay Buffer of biotinylated anti-Der f 1 monoclonal antibody 4C1, also denoted anti-Der f 1 MAb 4C1, provided by Dr. Martin Chapman, was added for 1 hour at room temperature. Plates were washed, streptavidin-HRP conjugate was added, and plates were developed as described in Example 5.

Data set [2] is described as follows: Cysteine protease activity, cleavage of quenched fluorogenic substrate. It is filed as biochemical. The settings on record: for Emission (w/o E-64): 50 μM substrate, 2 hours, excitation 380 nm, emission 460 nm; for Emission (w/E-64): pre-incubated 30 minutes with E-64 1 μg/ml. The method, then: Native Der f 1 is believed to be a cysteine protease, based on homology to papain; see, for example, Chua et al, 1992, J Exp Med 167, 175-182. The Der f 1 protein secreted as a mature form by recombinant cell P. pastoris HCY215 (i.e., P. pastoris strain X33 transformed with plasmid pBC128 containing nucleic acid molecule nDerf1909b (coding strand of SEQ ID NO:28) which encodes the pro-form of Der f 1 (amino acid sequence SEQ ID NO:29)) was tested for cysteine protease activity in the following manner. Three concentrations of protein were tested for their abilities to cleave an artificial substrate in the presence or absence of a cysteine protease inhibitor. Specifically, three pairs of samples containing 0.56 μg, 1.1 μg, or 5.6 μg of P. pastoris-expressed Der f 1 protein, respectively, were incubated for 30 minutes at room temperature in 20 μl of 50 mM Tris-HCl, pH 8. One member of each pair also contained the irreversible cysteine protease inhibitor E-64 at a concentration of 1 μg/ml. After the pre-incubation, 100 μl of 50 μM quenched fluorogenic substrate z-Val-Leu-Arg-AMC (available from Enzyme Systems Products, Livermore, Calif.) was added to all six samples, and the samples were incubated for 2 hours at room temperature. Fluorescence was measured using a Perkin Elmer Luminescence Spectrometer (model #LS50B) at an excitation wavelength of 380nm and an emission wavelength of 460 nm.

Data set [3] has as its system IgE from mite-allergic dog sera. Put plainly: ELISA, binding of IgE from dog sera to coated Der f 1 proteins or mite extracts, detected with FcεR1α-biotin.

B1: PDerf1303b: Recombinant Der f 1 expressed by P. pastoris HCY215 from nDerf1909b (pro-form, SEQ ID NO:29); actually secreted as mature form (protein, listed as Dermatophagoides farinae)
chain: RPASIKTFEEFKKAFNKNYATVEEEEVARKNFLESLKYVEANKGAINHLSDLSLDEFKNRYLMSAEAFEQLKTQFDLNAETSACRINSVNVPSELDLRSLRTVTPIRMQGGCGSCWAFSGVAATESAYLAYRNTSLDLSEQELVDCASQHGCHGDTIPRGIEYIQQNGVVEERSYPYVAREQRCRRPNSQHYGISNYCQIYPPDVKQIREALTQTHTAIAVIIGIKDLRAFQHYDGRTIIQHDNGYQPNYHAVNIVGYGSTQGDDYWIVRNSWDTTWGDSGYGYFQAGNNLMMIEQYPYVVIM
B1: the “OD, protein captured by MAb 6A8 and detected by MAb 4C1” value is listed as 405 OD in data set [1] (0.75 ng protein per well); 916 OD in data set [1] (1.5 ng protein per well); 2088 OD in data set [1] (2.5 ng protein per well); 1544 OD in data set [1] (3.1 ng protein per well); 1961 OD in data set [1] (6.25 ng protein per well); 2156 OD in data set [1] (25 ng protein per well). In addition, the “OD, protein captured by MAb 6A8 and detected by MAb 4C1” value in data set [1] (50 ng protein per well) was 2148 OD. In addition, the “Emission (w/o E-64)” value in data set [2] (0.56 micrograms rDer f 1) is 0.861; in data set [2] (1.1 micrograms rDer f 1), 1.693; in data set [2] (5.6 micrograms rDer f 1), 9.671. Moreover, the “Emission (w/E-64)” value in data set [2] (0.56 micrograms rDer f 1) was found to be 0.302; in data set [2] (1.1 micrograms rDer f 1), 0.765; in data set [2] (5.6 micrograms rDer f 1), 2.369. The cysteine protease activity result in data set [2] (can be inhibited by pre-incubation with E-64) is given as “exhibits cysteine protease activity”. The “OD, bound IgE” value was 364 OD multiplied by 1000 in data set [3] (Assay Number 1, serum dog pool); 21 OD multiplied by 1000 in data set [3] (Assay Number 1, serum dog-1); 1490 OD multiplied by 1000 in data set [3] (Assay Number 1, serum dog-2); 2499 OD multiplied by 1000 in data set [3] (Assay Number 1, serum dog-3); 199 OD multiplied by 1000 in data set [3] (Assay Number 2, dog sera pool A 146); 27 OD multiplied by 1000 in data set [3] (Assay Number 2, dog sera pool KS338). Also, in data set [3] (Table 1, 3 dog serum samples), the “reactivity: share of dog serum samples reactive to native Der f 1 proteins that are also reactive to the recombinant protein” value came out at 100%.
